According to the RNAGym collection of RNA variant scans (doi:10.7554/elife.90254):

B1: OR4K15 (parent)
chain: GUUAACGGUCAUAGGCCAUGGAAACUAGGAGCACCAUUUCGCUGCCAGUGAAGAAAUGAACAAAGAAAAUCUGGGCCAGGCAGGCAUCAAAAGAAAUAGUCUUGCGCUCAACCAGAAAGUCUGUAAUCAUUUUAAGGGUA

Variants of: B1
Experiment: self-cleavage, relative activity (ratio to wild type); higher = more cleavage; in vitro, sequencing; the parent is a self-cleaving ribozyme
With A27G U131G the self-cleavage was 1.09.
Variant A27G A91C has a self-cleavage of 1.42.
In the case of A27G A91G, the self-cleavage is reported as 1.22.
In the case of U26C G93U, the self-cleavage is reported as 0.86.
U26A A66C gave a self-cleavage of 0.9.
For A27G A33C, the self-cleavage was 1.32.
U26A A56G gave a self-cleavage of 1.7.
U26C A30G gave a self-cleavage of 1.25.
U26C A111G gave a self-cleavage of 0.03.
In the case of A27G A36U, the self-cleavage is reported as 0.85.
U26C A52U showed a self-cleavage of 0.88.
For U26C A52G, the self-cleavage was 1.82.
Variant C25U A33G has a self-cleavage of 1.12.
For A27G U108C, the self-cleavage was 0.02.
A27G A55G gave a self-cleavage of 1.57.
For U26C A94G, the self-cleavage was 0.95.
For A27G U43C, the self-cleavage was 1.41.
For U26C A60U, the self-cleavage was 1.43.
With U26A A63C the self-cleavage was 1.71.
With U26A A63U the self-cleavage was 2.02.
With A27G A62U the self-cleavage was 1.15.
Variant A27G A62G has a self-cleavage of 1.46.
Work on U26A A54C yielded a self-cleavage of 1.61.
Variant A27U A52U has a self-cleavage of 2.
In the case of U26A U37C, the self-cleavage is reported as 0.43.
With A27G A117U the self-cleavage was 0.53.
Work on A27G A117G yielded a self-cleavage of 1.15.
For U26C A62G, the self-cleavage was 1.47.
For A27G A90G, the self-cleavage was 1.41.
For A27G A95C, the self-cleavage was 0.48.
C25U U72C showed a self-cleavage of 0.4.
For C25U A89C, the self-cleavage was 1.42.
With U26C the self-cleavage was 1.26.
Work on U26A yielded a self-cleavage of 1.07.
For U26G, the self-cleavage was 1.33.
A27G U70C showed a self-cleavage of 0.56.
With A27G A116U the self-cleavage was 0.05.
A27G A30U gave a self-cleavage of 1.61.
With A27G A30C the self-cleavage was 1.14.
Work on A27G G44A yielded a self-cleavage of 1.52.
A27G U133C showed a self-cleavage of 1.58.
C25U U49C gave a self-cleavage of 1.45.
Variant U26C A82G has a self-cleavage of 0.5.
Variant A27G A98G has a self-cleavage of 0.77.
With U26C U131A the self-cleavage was 1.02.
In the case of U26A A59G, the self-cleavage is reported as 1.18.
In the case of A27G A135G, the self-cleavage is reported as 0.84.
U26C A135U showed a self-cleavage of 0.57.
Variant U26C U127C has a self-cleavage of 0.85.
Variant A27C A135U has a self-cleavage of 2.25.
A27G U132C gave a self-cleavage of 0.79.
A27G A54G showed a self-cleavage of 1.37.
For U26C A140U, the self-cleavage was 0.35.
A27G A68U showed a self-cleavage of 1.1.
Variant A27G A118U has a self-cleavage of 0.36.
A27G A118G showed a self-cleavage of 0.47.
U26C U72A gave a self-cleavage of 0.33.
In the case of U26C U72C, the self-cleavage is reported as 0.07.
Variant U26C U122A has a self-cleavage of 1.87.
A27G C71A gave a self-cleavage of 0.66.
In the case of U26C C76U, the self-cleavage is reported as 0.09.
For U26C A47G, the self-cleavage was 1.24.
In the case of A27G A59G, the self-cleavage is reported as 1.03.
For A27G A59U, the self-cleavage was 1.24.
Variant U26C A91G has a self-cleavage of 1.26.
U26C A118G showed a self-cleavage of 2.14.
Work on A27G A92C yielded a self-cleavage of 1.36.
For U26A A62G, the self-cleavage was 1.75.
U26C U39C showed a self-cleavage of 1.63.
With A27G U103A the self-cleavage was 0.45.
In the case of U26C U124C, the self-cleavage is reported as 1.05.
With U26C A95G the self-cleavage was 1.75.
In the case of A27G A114U, the self-cleavage is reported as 0.16.
U26G U127A gave a self-cleavage of 1.82.
For A27G C105A, the self-cleavage was 0.04.
Variant U26C A64G has a self-cleavage of 0.74.
U26C A126G gave a self-cleavage of 0.72.
For A27C, the self-cleavage was 1.21.
With A27G the self-cleavage was 1.1.
Variant A27U has a self-cleavage of 0.91.
Variant A27G A96G has a self-cleavage of 1.1.
Variant U26C U37C has a self-cleavage of 0.95.
With A27G A140G the self-cleavage was 1.
A27G G123U gave a self-cleavage of 1.67.
Work on A27G A111U yielded a self-cleavage of 0.04.
In the case of U26G A89C, the self-cleavage is reported as 1.29.
For U26C A96U, the self-cleavage was 1.89.
Work on U26C A78U yielded a self-cleavage of 0.21.
Variant U26C A78G has a self-cleavage of 0.21.
Work on C25A U122A yielded a self-cleavage of 0.94.
A27G U102C showed a self-cleavage of 1.06.
In the case of A27C A78C, the self-cleavage is reported as 0.25.
U26C A33G showed a self-cleavage of 0.84.
In the case of U26C U38C, the self-cleavage is reported as 1.45.
Variant U26A A118G has a self-cleavage of 0.34.
Work on C25U A94U yielded a self-cleavage of 1.62.
Variant U26A A110G has a self-cleavage of 0.22.
For U26A A89G, the self-cleavage was 1.53.
A27G A47G gave a self-cleavage of 0.68.
For A27G A129G, the self-cleavage was 1.06.
C25U U100C gave a self-cleavage of 2.01.
Work on A27G A82G yielded a self-cleavage of 0.33.
With A27G A82C the self-cleavage was 0.1.
With A27G U57C the self-cleavage was 0.49.
A27G A89U showed a self-cleavage of 2.
Work on U26A A117G yielded a self-cleavage of 1.78.
With U26C G58U the self-cleavage was 1.48.
With U26G A36G the self-cleavage was 1.37.
With U26A U122C the self-cleavage was 0.72.
Work on U26A U122A yielded a self-cleavage of 0.73.
A27G A78U gave a self-cleavage of 0.34.
For U26C U87A, the self-cleavage was 1.6.
A27G U100C gave a self-cleavage of 1.8.
For U26A A140G, the self-cleavage was 2.37.
Work on C25U A47U yielded a self-cleavage of 1.35.
With U26C U43A the self-cleavage was 1.29.
Work on C25U A30G yielded a self-cleavage of 1.24.
U26C A89U gave a self-cleavage of 0.5.
Variant C25U A92G has a self-cleavage of 0.6.
A27G A66C gave a self-cleavage of 1.24.
Variant A27G U124C has a self-cleavage of 0.9.
In the case of A27G A110C, the self-cleavage is reported as 0.43.
A27G A110G gave a self-cleavage of 0.1.
For A27C A36C, the self-cleavage was 2.11.
Work on A27G A63U yielded a self-cleavage of 1.83.
In the case of U26C U57C, the self-cleavage is reported as 1.44.
A27G G50A showed a self-cleavage of 2.45.
In the case of U26C A27C, the self-cleavage is reported as 2.1.
U26C A66G showed a self-cleavage of 0.9.
Work on U26C U70C yielded a self-cleavage of 0.38.
U26C U70A showed a self-cleavage of 0.63.
For A27G U37C, the self-cleavage was 1.27.
Variant A27U A54G has a self-cleavage of 1.64.
Variant C25U A60G has a self-cleavage of 1.88.
For A27G U97A, the self-cleavage was 1.24.
For C25U, the self-cleavage was 1.3.
For C25G, the self-cleavage was 1.1.
In the case of U26A U139A, the self-cleavage is reported as 1.05.
For C25U A82G, the self-cleavage was 0.05.
In the case of U26C U132C, the self-cleavage is reported as 0.52.
U26C G44U gave a self-cleavage of 1.99.
Work on U26A A78G yielded a self-cleavage of 0.17.
U26A A78U showed a self-cleavage of 0.43.
In the case of U26C A116U, the self-cleavage is reported as 0.18.
With C25U A51G the self-cleavage was 2.48.
Work on A27G A56G yielded a self-cleavage of 1.57.
In the case of C25U A118G, the self-cleavage is reported as 0.68.
Variant A27G G104A has a self-cleavage of 0.02.
U26C A69C showed a self-cleavage of 1.74.
A27G A125U showed a self-cleavage of 1.41.
In the case of A27G A125G, the self-cleavage is reported as 0.26.
For C25U A86U, the self-cleavage was 0.61.
C25U A86G gave a self-cleavage of 1.2.
U26C A51G gave a self-cleavage of 1.72.
For A27C A91G, the self-cleavage was 0.64.
With U26C A114G the self-cleavage was 0.04.
Work on A27U A59U yielded a self-cleavage of 1.64.
C25U A56G showed a self-cleavage of 0.46.
U26G A114U showed a self-cleavage of 0.06.
In the case of A27G A67U, the self-cleavage is reported as 2.19.
For U26C U49C, the self-cleavage was 1.41.
For A27G U139C, the self-cleavage was 1.05.
Variant A27G A52G has a self-cleavage of 1.44.
With U26C A117U the self-cleavage was 0.5.
U26C A117G showed a self-cleavage of 1.36.
In the case of A27U A56G, the self-cleavage is reported as 1.21.
For A27G A126G, the self-cleavage was 0.8.
